Measured values from publication PMC2693429.

Columns and labels:
[1] = biological target: Recombinant Very Low Density Lipoprotein Receptor (VLDLR) ligand binding region; assay: SPR; VLDLR immobilised on a CM5 BIAcore chip (~2,000 response units, amine coupling); analytes in 10 mM Hepes pH 7.4, 150 mM NaCl, 1 mM CaCl2, 0.005% Tween-20 at 20 μL/min; regeneration 100 mM H3PO4; blank cell as reference; 1:1 binding model
[2] = biological target: 6 × His-tagged PAI-2 lacking the intrahelical loop between C and D alpha-helices (PAI-2 ΔCD-loop), from pQE9 (human) (UniProt P05120); assay: native MS; positive ion ESI-MS (Q-TOF); 10 μM protein in 10 mM ammonium acetate pH 6.8 with 0.1% formic acid; monomeric and dimeric species seen

| Kd [1] [nM] | koff [1] [s⁻¹] | kon [1] [M⁻¹ s⁻¹] | stoichiometry N [2] | Substance |
| --- | --- | --- | --- | --- |
| 4.81 | 0.00144 | 375000 |  | uPA:PAI-2 wild-type complex (from UniProt P05120 1-415) |
| 4.34 | 0.00136 | 416000 |  | uPA:PAI-2 ΔCD-loop complex (from UniProt P05120 1-415) |
|  |  |  | 2 | 6 × His-tagged PAI-2 lacking the intrahelical loop between C and D alpha-helices (PAI-2 ΔCD-loop), from pQE9 (from UniProt P05120 1-415) (natural protein) |
